In paper PMC11909895 one finds Nlgn1 levels in the co-immunoprecipitates as percentage of total Nlgn1 in the initial lysates data, which are given here for one substance.

Experiment [1] addresses beta-Nrxn1ΔC, C-terminal truncated mutant beta-Nrxn1 (-AS4). Nature of the experiment: co-IP; HA antibody (clone 3F10) and Protein-G Sepharose from striatum lysates of adult control and beta-Nrxn1ΔC mice; lysis buffer 20 mM Tris-HCl pH 7.5, 100 mM NaCl, 5 mM MgCl2, 5 mM CaCl2, 1% Triton X-100; blots for Nlgn1, Nlgn2, Nlgn3, LRRTM2.
Experiment [2] has the same target. Nature of the experiment: co-IP; HA antibody (clone 3F10) and Protein-G Sepharose from cortex lysates of adult control and beta-Nrxn1ΔC mice (untreated, or DOX 14 days then 30 days re-expression); lysis buffer 20 mM Tris-HCl pH 7.5, 100 mM NaCl, 5 mM MgCl2, 5 mM CaCl2, 1% Triton X-100; blots for Nlgn1, Nlgn2, Nlgn3, LRRTM2.

Consider “Nlgn1 (neuroligin-1) (from UniProt Q99K10 46-843) (natural protein)”, for which the Nlgn1 levels in the co-immunoprecipitates as percentage of total Nlgn1 in the initial lysates is 1.74% in experiment [1] and 5.01% in experiment [2].
